Test results reported in PMC3437207, “G-quadruplex recognition activities of E. Coli MutS”.

T1: MutS F36A (Escherichia coli, UniProt P23909 1-853, F36A)
T1 sequence: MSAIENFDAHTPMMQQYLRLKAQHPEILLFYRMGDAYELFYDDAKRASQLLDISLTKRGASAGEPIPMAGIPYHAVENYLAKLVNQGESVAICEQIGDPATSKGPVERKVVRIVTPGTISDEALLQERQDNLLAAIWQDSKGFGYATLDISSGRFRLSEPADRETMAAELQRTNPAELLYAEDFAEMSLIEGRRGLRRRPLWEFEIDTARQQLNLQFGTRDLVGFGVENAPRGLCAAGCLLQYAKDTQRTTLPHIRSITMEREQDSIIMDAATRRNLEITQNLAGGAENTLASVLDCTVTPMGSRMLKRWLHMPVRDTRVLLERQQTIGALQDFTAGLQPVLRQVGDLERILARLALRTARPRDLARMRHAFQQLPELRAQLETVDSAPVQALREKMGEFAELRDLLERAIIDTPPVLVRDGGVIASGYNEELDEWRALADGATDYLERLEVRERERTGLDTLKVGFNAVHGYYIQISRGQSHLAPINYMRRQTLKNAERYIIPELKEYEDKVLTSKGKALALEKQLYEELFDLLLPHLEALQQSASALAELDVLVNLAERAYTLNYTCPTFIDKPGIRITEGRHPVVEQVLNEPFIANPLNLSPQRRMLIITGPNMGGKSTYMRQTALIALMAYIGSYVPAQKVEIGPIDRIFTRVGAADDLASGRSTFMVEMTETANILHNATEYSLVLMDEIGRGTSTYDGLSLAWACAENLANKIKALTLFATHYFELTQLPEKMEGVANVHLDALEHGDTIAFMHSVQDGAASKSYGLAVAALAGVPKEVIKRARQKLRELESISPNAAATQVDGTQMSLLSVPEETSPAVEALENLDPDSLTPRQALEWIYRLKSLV

B1: G-T mismatch heteroduplex (dsDNA)
DNA 1: CTAGCAAGCTTTCGATTCTAGAAATTCGGC
DNA 2: GCCGAATTTCTAGAATTGAAAGCTTGCTAG
B2: Homoduplex (dsDNA)
DNA 1: CTAGCAAGCTTTCAATTCTAGAAATTCGGC
DNA 2: GCCGAATTTCTAGAATTGAAAGCTTGCTAG

How the values were obtained:
MutS F36A [1] = molecular target: T1, MutS F36A; experiment: EMSA; 19-150 nM protein; no nucleotide; 5 mM Mg2+; 20 mM Tris pH 7.6, 5 mM MgCl2, 1 mM DTT, 50 ug/ml BSA, 10 mM KCl, 200 fmol homoduplex competitor, 10-20 fmol labeled DNA in 20 ul; 6% native PAGE 0.5X TBE with; settings: protein: recombinant; tags: His; chain copies: 2; label: 5' 32P; blunt; single G-T mismatch at position 14 of strand 1
MutS F36A [2] = molecular target: T1, MutS F36A; experiment: EMSA; 38-150 nM protein; 20 mM Tris pH 7.6, 5 mM MgCl2, 1 mM DTT, 50 ug/ml BSA, 10 mM KCl, 200 fmol homoduplex competitor, 10-20 fmol labeled DNA in 20 ul; 6% native PAGE 0.5X TBE with; settings: protein: recombinant; tags: His; chain copies: 2; label: 32P; blunt

Binder | binding result (MutS F36A [1]) | binding result (MutS F36A [2])
B1 | no binding | –
B2 | – | no binding
